In article PMC11731779, “Transferrin Disassociates TCR from CD3 Signaling Apparatus to Promote Metastasis” (Research, 2025):
Each block holds one binder with its values, some of them ahead of it.

Tests used:
transferrin [1] = target: T1, transferrin (UniProt P02787 20-698); test: SPR; Biacore T200; transferrin amine-coupled to a CM5 chip at ~6,000 resonance units; analytes in PBST (0.02% Tween 20) at 20 μl/min; TCRα, TCRβ and human serum albumin at 1,000 nM; TCRα and TRAC at 125, 250, 500 and 1,000 nM; kinetic and steady-state fits; conditions: both partners purified
T1 construct: transferrin (serotransferrin); One molecule for the transferrin immobilised for SPR, added to cells (co-IP with intervention, FRET) and co-precipitated from human PBMC / T cells; Methods are in the supplement; also called Tf

transferrin [2] = target: T1, transferrin; test: not stated; DK8 binding to transferrin, 'binding response value' and KD (Fig. S9C and E); method not given

T1 sequence (P02787 20-698): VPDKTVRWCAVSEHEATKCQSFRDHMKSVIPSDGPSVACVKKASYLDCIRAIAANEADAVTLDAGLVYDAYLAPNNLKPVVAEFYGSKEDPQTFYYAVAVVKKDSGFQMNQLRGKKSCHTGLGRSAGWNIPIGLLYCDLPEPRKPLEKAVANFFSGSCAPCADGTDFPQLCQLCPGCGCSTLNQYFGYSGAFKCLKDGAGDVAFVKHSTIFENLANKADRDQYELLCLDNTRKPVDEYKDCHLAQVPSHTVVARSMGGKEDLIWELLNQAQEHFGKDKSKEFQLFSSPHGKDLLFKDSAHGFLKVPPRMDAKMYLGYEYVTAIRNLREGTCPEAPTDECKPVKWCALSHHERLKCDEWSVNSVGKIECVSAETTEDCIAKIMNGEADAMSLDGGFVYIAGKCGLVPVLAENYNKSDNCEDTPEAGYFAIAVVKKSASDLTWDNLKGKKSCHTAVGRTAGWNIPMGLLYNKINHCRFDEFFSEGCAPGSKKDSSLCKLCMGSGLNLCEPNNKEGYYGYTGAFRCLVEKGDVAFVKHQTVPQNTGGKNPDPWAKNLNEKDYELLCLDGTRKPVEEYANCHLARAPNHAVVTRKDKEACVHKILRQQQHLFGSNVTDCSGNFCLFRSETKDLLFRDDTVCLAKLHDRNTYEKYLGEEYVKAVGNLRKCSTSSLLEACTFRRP

Kd (transferrin [1]): 10.9 nM
B1: T cell receptor α constant (TRAC) (domain or fragment, human, UniProt P01848 1-115, looked up)
chain: IQNPDPAVYQLRDSKSSDKSVCLFTDFDSQTNVSQSKDSDVYITDKTVLDMRSMDFKSNSAVAWSNKSDFACANAFNNSIIPEDTFFPSPESSCDVKLVEKSFETDTNLNFQNLS
notes: T cell receptor alpha chain constant region (TRAC), human, UniProt P01848; TRAC protein used as analyte in SPR; construct and host may stand in the Supplementary Methods; also called constant domain (CD) of TCRα; Cα

Kd (transferrin [2]): 166 nM
B2: DK8 (peptide)
peptide: DMRSMDFK
notes: amino acids 50 to 57 of TRAC (UniProt P01848); also called interfering peptide DK8; designed peptide (DK8)
